The source of these data is doi:10.1101/2020.09.24.310243.

Where two headings read alike, the source gives them in different places.

The target of test [1] is E. coli DNA gyrase A2B2 complex (E. coli) (UniProt P0AES4).
Test [2] deals with [Alexa488]-QnrB1 (QnrB1-His labelled at the N-terminus with AlexaFluor 488). Put plainly: fluorescence polarisation. (In fluorescence polarisation assays a small probe gives low polarisation when free and higher when bound to something large.)
The target is the same in test [3]. Put plainly: fluorescence polarisation. This is another data set of the same source.
Test [4] has as its target GyrB 43 kDa domain (GyrB43), N-terminal ATPase/transducer domain of E. coli GyrB (E. coli).
Test [5] concerns the target E. coli DNA gyrase A2B2 complex (E. coli) (UniProt P0AES4). This is another data set of the same source.
The target of test [6] is E. coli DNA gyrase subunit B, full-length, untagged (E. coli) (UniProt P0AES6).
For test [7], the target named is E. coli DNA gyrase A2B2 complex (E. coli) (UniProt P0AES4). This is another data set of the same source.

As to “AlbG with a thrombin-cleavable N-terminal hexahistidine tag (natural protein)”, in test [1], the rescue of gyrase supercoiling from 3.3 μM albicidin by AlbG, EC50 came to 1200 nM.
A word on the Kd: it is a measure of binding affinity in units of concentration. For the substance “E. coli DNA gyrase A2B2 complex (from UniProt P0AES4 1-875; P0AES6 1-804)”, the Kd turned out to be 1780 nM in test [2] and 80 nM in test [3].
Consider “E. coli DNA gyrase subunit B, full-length, untagged (from UniProt P0AES6 1-804) (natural protein)”, for which the KdHi (high-affinity site of the two-site fit), with ADPNP in test [2] worked out at 0.16 µM. In addition, the KdHi (high-affinity site of the two-site fit) in test [3] turned out to be 0.06 µM.
Turning to “GyrB 43 kDa domain (GyrB43), N-terminal ATPase/transducer domain of E. coli GyrB (domain or fragment)”, the Kd was 18000 nM in test [2] and 1670 nM in test [3].
In turn, “QnrB1 with a C-terminal 6xHis tag (wild type, unlabelled) (natural protein)” displayed an ATPase rate of 4 μM GyrB43 with 5 μM QnrB1 against no QnrB1 in test [4] of 17 fold. In test [5], this substance yielded an ATP hydrolysis rate of 50 nM gyrase A2B2 in the absence of DNA, with 5 μM QnrB1 of 3 fold. The substance further displayed an ATPase activity of the full-length GyrB subunit with QnrB1 (not shown) in test [6] of less than 2 fold. In addition, the inhibition of gyrase supercoiling by QnrB1 without CFX, IC50 in test [7] came out at 11000 nM.
